Literature values in publication PMC4799752.

Biological target: transferrin receptor 2 (Homo sapiens) (UniProt Q9UP52)
UniProt Q9UP52, sequence (Q9UP52 whole entry): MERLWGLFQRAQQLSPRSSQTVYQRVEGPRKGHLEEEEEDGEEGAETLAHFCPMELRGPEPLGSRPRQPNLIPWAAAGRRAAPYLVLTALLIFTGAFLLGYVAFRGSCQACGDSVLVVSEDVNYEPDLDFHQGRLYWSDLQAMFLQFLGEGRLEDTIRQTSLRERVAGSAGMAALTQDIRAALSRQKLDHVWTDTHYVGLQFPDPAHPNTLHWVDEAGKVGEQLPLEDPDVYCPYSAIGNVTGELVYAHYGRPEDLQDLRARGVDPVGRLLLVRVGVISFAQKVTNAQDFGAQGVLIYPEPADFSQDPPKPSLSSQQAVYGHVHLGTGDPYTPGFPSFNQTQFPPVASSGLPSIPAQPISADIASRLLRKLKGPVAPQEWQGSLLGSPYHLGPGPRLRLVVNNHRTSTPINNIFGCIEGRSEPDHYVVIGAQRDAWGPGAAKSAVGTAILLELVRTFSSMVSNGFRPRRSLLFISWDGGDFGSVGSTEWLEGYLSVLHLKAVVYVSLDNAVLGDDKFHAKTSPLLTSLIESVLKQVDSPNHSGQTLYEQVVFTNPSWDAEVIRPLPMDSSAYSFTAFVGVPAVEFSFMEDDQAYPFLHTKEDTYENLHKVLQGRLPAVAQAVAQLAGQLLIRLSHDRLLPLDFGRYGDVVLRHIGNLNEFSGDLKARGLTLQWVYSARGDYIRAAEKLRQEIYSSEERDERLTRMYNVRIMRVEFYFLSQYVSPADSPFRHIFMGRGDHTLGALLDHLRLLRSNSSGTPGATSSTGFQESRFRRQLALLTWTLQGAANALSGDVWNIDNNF

transferrin, sequence (P02787 20-698): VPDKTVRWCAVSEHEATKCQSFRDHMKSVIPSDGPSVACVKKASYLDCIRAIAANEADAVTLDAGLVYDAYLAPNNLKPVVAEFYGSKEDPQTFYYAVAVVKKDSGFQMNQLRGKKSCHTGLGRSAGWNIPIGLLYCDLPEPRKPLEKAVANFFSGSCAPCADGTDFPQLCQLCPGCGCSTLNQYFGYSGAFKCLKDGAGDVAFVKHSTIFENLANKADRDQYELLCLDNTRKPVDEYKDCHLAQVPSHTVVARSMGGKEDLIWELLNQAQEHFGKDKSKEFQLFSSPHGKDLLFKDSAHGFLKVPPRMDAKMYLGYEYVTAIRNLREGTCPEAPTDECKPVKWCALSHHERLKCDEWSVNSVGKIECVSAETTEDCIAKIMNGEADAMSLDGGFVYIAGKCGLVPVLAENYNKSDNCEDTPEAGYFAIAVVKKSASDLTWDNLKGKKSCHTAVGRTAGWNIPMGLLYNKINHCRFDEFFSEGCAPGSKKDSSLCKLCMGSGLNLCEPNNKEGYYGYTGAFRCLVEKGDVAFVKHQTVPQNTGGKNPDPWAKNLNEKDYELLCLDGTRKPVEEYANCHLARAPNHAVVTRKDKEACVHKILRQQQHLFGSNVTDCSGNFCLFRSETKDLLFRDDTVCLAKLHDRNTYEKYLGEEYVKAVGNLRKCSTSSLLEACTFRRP

## transferrin (from UniProt P02787)
  Kd: 30 nM
